Measured values: patent EP4538286A1 (Adlai Nortye Biopharma Co., Ltd., dated 2025)

T1: human CTLA4 protein (human, UniProt P16410 37-162, limits assumed)
T1 construct: bought protein coated on the ELISA plate; also called human CTLA4 antigen
T1 sequence (looked up): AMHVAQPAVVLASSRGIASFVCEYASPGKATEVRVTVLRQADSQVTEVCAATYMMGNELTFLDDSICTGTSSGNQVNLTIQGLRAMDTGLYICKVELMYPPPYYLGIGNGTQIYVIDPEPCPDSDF


Key:
human CTLA4 protein = target: T1, human CTLA4 protein; experiment: ELISA, plate-coated human CTLA4
human CD28 protein = target: T2, human CD28 protein (human, UniProt P10747 19-152); experiment: ELISA, plate-coated human CD28
T2 construct: bought protein coated on the ELISA plate; also called human CD28 antigen
T2 sequence (P10747 19-152 limits assumed): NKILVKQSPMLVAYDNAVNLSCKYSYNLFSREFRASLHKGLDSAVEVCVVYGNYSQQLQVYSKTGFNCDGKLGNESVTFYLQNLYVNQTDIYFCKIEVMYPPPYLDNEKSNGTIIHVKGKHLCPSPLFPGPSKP

Binder	binding result (human CTLA4 protein)	binding result (human CD28 protein)
Abs-247 (other, the paragraph that names the antibody is followed; also called CD80 IgV mutant M47A/I69Y/A71E/V83L-sugemalimab fusion) heavy: VIHVTKEVKEVATLSCGHNVSVEELAQTRIYWQKEKKMVLTMMSGDANIWPEYKNRTIFDITNNLSIVYLELRPSDEGTYECLVLKYEKDAFKREHLAEVTLSVKADGGGGSGGGGSGGGGSGGGGSGEVQLLESGGGLVQPGGSLRLSCAASGFTFSSYAMSWVRQAPGKGLEWVSGISGSGGFTYYADSVKGRFTISRDNSKNTLYLQMNSLRAEDTAVYYCAKPPRGYNYGPFDYWGQGTLVTVSSASTKGPSVFPLAPCSRSTSESTAALGCLVKDYFPEPVTVSWNSGALTSGVHTFPAVLQSSGLYSLSSVVTVPSSSLGTKTYTCNVDHKPSNTKVDKRVESKYGPPCPPCPAPEFLGGPSVFLFPPKPKDTLMISRTPEVTCVVVDVSQEDPEVQFNWYVDGVEVHNAKTKPREEQFNSTYRVVSVLAVLHQDWLNGKEYKCKVSNKGLPSSIEKTISKAKGQPREPQVYTLPPSQEEMTKNQVSLTCLVKGFYPSDIAVAWESNGQPENNYKTTPPVLDSDGSFFLYSRLTVDKSRWQEGNVFSCSVMHEALHAHYTQKSLSLSLGK light: SYVLTQPPSVSVAPGQTARITCGGNNIGSKSVHWYQQKPGQAPVLVVYDDSDRPSGIPERFSGSNSGNTATLTISRVEAGDEADYYCQVWDSSSDHVVFGGGTKLTVLGQPKAAPSVTLFPPSSEELQANKATLVCLISDFYPGAVTVAWKADSSPVKAGVETTTPSKQSNNKYAASSYLSLTPEQWKSHRSYSCQVTHEGSTVEKTVAPTECS	no binding	no binding
Abs-248 (other, the paragraph that names the antibody is followed; also called CD80 IgV mutant M47A/I69W/A71E/V83L-sugemalimab fusion) heavy: VIHVTKEVKEVATLSCGHNVSVEELAQTRIYWQKEKKMVLTMMSGDANIWPEYKNRTIFDITNNLSIVWLELRPSDEGTYECLVLKYEKDAFKREHLAEVTLSVKADGGGGSGGGGSGGGGSGGGGSGEVQLLESGGGLVQPGGSLRLSCAASGFTFSSYAMSWVRQAPGKGLEWVSGISGSGGFTYYADSVKGRFTISRDNSKNTLYLQMNSLRAEDTAVYYCAKPPRGYNYGPFDYWGQGTLVTVSSASTKGPSVFPLAPCSRSTSESTAALGCLVKDYFPEPVTVSWNSGALTSGVHTFPAVLQSSGLYSLSSVVTVPSSSLGTKTYTCNVDHKPSNTKVDKRVESKYGPPCPPCPAPEFLGGPSVFLFPPKPKDTLMISRTPEVTCVVVDVSQEDPEVQFNWYVDGVEVHNAKTKPREEQFNSTYRVVSVLAVLHQDWLNGKEYKCKVSNKGLPSSIEKTISKAKGQPREPQVYTLPPSQEEMTKNQVSLTCLVKGFYPSDIAVAWESNGQPENNYKTTPPVLDSDGSFFLYSRLTVDKSRWQEGNVFSCSVMHEALHAHYTQKSLSLSLGK light: SYVLTQPPSVSVAPGQTARITCGGNNIGSKSVHWYQQKPGQAPVLVVYDDSDRPSGIPERFSGSNSGNTATLTISRVEAGDEADYYCQVWDSSSDHVVFGGGTKLTVLGQPKAAPSVTLFPPSSEELQANKATLVCLISDFYPGAVTVAWKADSSPVKAGVETTTPSKQSNNKYAASSYLSLTPEQWKSHRSYSCQVTHEGSTVEKTVAPTECS	no binding	no binding
Abs-249 (other, the paragraph that names the antibody is followed; also called CD80 IgV mutant M47A/I69Y/A71E-sugemalimab fusion) heavy: VIHVTKEVKEVATLSCGHNVSVEELAQTRIYWQKEKKMVLTMMSGDANIWPEYKNRTIFDITNNLSIVYLELRPSDEGTYECVVLKYEKDAFKREHLAEVTLSVKADGGGGSGGGGSGGGGSGGGGSGEVQLLESGGGLVQPGGSLRLSCAASGFTFSSYAMSWVRQAPGKGLEWVSGISGSGGFTYYADSVKGRFTISRDNSKNTLYLQMNSLRAEDTAVYYCAKPPRGYNYGPFDYWGQGTLVTVSSASTKGPSVFPLAPCSRSTSESTAALGCLVKDYFPEPVTVSWNSGALTSGVHTFPAVLQSSGLYSLSSVVTVPSSSLGTKTYTCNVDHKPSNTKVDKRVESKYGPPCPPCPAPEFLGGPSVFLFPPKPKDTLMISRTPEVTCVVVDVSQEDPEVQFNWYVDGVEVHNAKTKPREEQFNSTYRVVSVLAVLHQDWLNGKEYKCKVSNKGLPSSIEKTISKAKGQPREPQVYTLPPSQEEMTKNQVSLTCLVKGFYPSDIAVAWESNGQPENNYKTTPPVLDSDGSFFLYSRLTVDKSRWQEGNVFSCSVMHEALHAHYTQKSLSLSLGK light: SYVLTQPPSVSVAPGQTARITCGGNNIGSKSVHWYQQKPGQAPVLVVYDDSDRPSGIPERFSGSNSGNTATLTISRVEAGDEADYYCQVWDSSSDHVVFGGGTKLTVLGQPKAAPSVTLFPPSSEELQANKATLVCLISDFYPGAVTVAWKADSSPVKAGVETTTPSKQSNNKYAASSYLSLTPEQWKSHRSYSCQVTHEGSTVEKTVAPTECS	no binding	no binding
Abs-250 (other, the paragraph that names the antibody is followed; also called CD80 IgV mutant M47A/I69W/A71E-sugemalimab fusion) heavy: VIHVTKEVKEVATLSCGHNVSVEELAQTRIYWQKEKKMVLTMMSGDANIWPEYKNRTIFDITNNLSIVWLELRPSDEGTYECVVLKYEKDAFKREHLAEVTLSVKADGGGGSGGGGSGGGGSGGGGSGEVQLLESGGGLVQPGGSLRLSCAASGFTFSSYAMSWVRQAPGKGLEWVSGISGSGGFTYYADSVKGRFTISRDNSKNTLYLQMNSLRAEDTAVYYCAKPPRGYNYGPFDYWGQGTLVTVSSASTKGPSVFPLAPCSRSTSESTAALGCLVKDYFPEPVTVSWNSGALTSGVHTFPAVLQSSGLYSLSSVVTVPSSSLGTKTYTCNVDHKPSNTKVDKRVESKYGPPCPPCPAPEFLGGPSVFLFPPKPKDTLMISRTPEVTCVVVDVSQEDPEVQFNWYVDGVEVHNAKTKPREEQFNSTYRVVSVLAVLHQDWLNGKEYKCKVSNKGLPSSIEKTISKAKGQPREPQVYTLPPSQEEMTKNQVSLTCLVKGFYPSDIAVAWESNGQPENNYKTTPPVLDSDGSFFLYSRLTVDKSRWQEGNVFSCSVMHEALHAHYTQKSLSLSLGK light: SYVLTQPPSVSVAPGQTARITCGGNNIGSKSVHWYQQKPGQAPVLVVYDDSDRPSGIPERFSGSNSGNTATLTISRVEAGDEADYYCQVWDSSSDHVVFGGGTKLTVLGQPKAAPSVTLFPPSSEELQANKATLVCLISDFYPGAVTVAWKADSSPVKAGVETTTPSKQSNNKYAASSYLSLTPEQWKSHRSYSCQVTHEGSTVEKTVAPTECS	no binding	no binding
Abs-251 (other, the paragraph that names the antibody is followed; also called CD80 IgV mutant I69Y/A71E/V83L-sugemalimab fusion) heavy: VIHVTKEVKEVATLSCGHNVSVEELAQTRIYWQKEKKMVLTMMSGDMNIWPEYKNRTIFDITNNLSIVYLELRPSDEGTYECLVLKYEKDAFKREHLAEVTLSVKADGGGGSGGGGSGGGGSGGGGSGEVQLLESGGGLVQPGGSLRLSCAASGFTFSSYAMSWVRQAPGKGLEWVSGISGSGGFTYYADSVKGRFTISRDNSKNTLYLQMNSLRAEDTAVYYCAKPPRGYNYGPFDYWGQGTLVTVSSASTKGPSVFPLAPCSRSTSESTAALGCLVKDYFPEPVTVSWNSGALTSGVHTFPAVLQSSGLYSLSSVVTVPSSSLGTKTYTCNVDHKPSNTKVDKRVESKYGPPCPPCPAPEFLGGPSVFLFPPKPKDTLMISRTPEVTCVVVDVSQEDPEVQFNWYVDGVEVHNAKTKPREEQFNSTYRVVSVLAVLHQDWLNGKEYKCKVSNKGLPSSIEKTISKAKGQPREPQVYTLPPSQEEMTKNQVSLTCLVKGFYPSDIAVAWESNGQPENNYKTTPPVLDSDGSFFLYSRLTVDKSRWQEGNVFSCSVMHEALHAHYTQKSLSLSLGK light: SYVLTQPPSVSVAPGQTARITCGGNNIGSKSVHWYQQKPGQAPVLVVYDDSDRPSGIPERFSGSNSGNTATLTISRVEAGDEADYYCQVWDSSSDHVVFGGGTKLTVLGQPKAAPSVTLFPPSSEELQANKATLVCLISDFYPGAVTVAWKADSSPVKAGVETTTPSKQSNNKYAASSYLSLTPEQWKSHRSYSCQVTHEGSTVEKTVAPTECS	no binding	no binding
Abs-252 (other, the paragraph that names the antibody is followed; also called CD80 IgV mutant I69W/A71E/V83L-sugemalimab fusion) heavy: VIHVTKEVKEVATLSCGHNVSVEELAQTRIYWQKEKKMVLTMMSGDMNIWPEYKNRTIFDITNNLSIVWLELRPSDEGTYECLVLKYEKDAFKREHLAEVTLSVKADGGGGSGGGGSGGGGSGGGGSGEVQLLESGGGLVQPGGSLRLSCAASGFTFSSYAMSWVRQAPGKGLEWVSGISGSGGFTYYADSVKGRFTISRDNSKNTLYLQMNSLRAEDTAVYYCAKPPRGYNYGPFDYWGQGTLVTVSSASTKGPSVFPLAPCSRSTSESTAALGCLVKDYFPEPVTVSWNSGALTSGVHTFPAVLQSSGLYSLSSVVTVPSSSLGTKTYTCNVDHKPSNTKVDKRVESKYGPPCPPCPAPEFLGGPSVFLFPPKPKDTLMISRTPEVTCVVVDVSQEDPEVQFNWYVDGVEVHNAKTKPREEQFNSTYRVVSVLAVLHQDWLNGKEYKCKVSNKGLPSSIEKTISKAKGQPREPQVYTLPPSQEEMTKNQVSLTCLVKGFYPSDIAVAWESNGQPENNYKTTPPVLDSDGSFFLYSRLTVDKSRWQEGNVFSCSVMHEALHAHYTQKSLSLSLGK light: SYVLTQPPSVSVAPGQTARITCGGNNIGSKSVHWYQQKPGQAPVLVVYDDSDRPSGIPERFSGSNSGNTATLTISRVEAGDEADYYCQVWDSSSDHVVFGGGTKLTVLGQPKAAPSVTLFPPSSEELQANKATLVCLISDFYPGAVTVAWKADSSPVKAGVETTTPSKQSNNKYAASSYLSLTPEQWKSHRSYSCQVTHEGSTVEKTVAPTECS	no binding	no binding
Abs-253 (other, the paragraph that names the antibody is followed; also called CD80 IgV mutant I69Y/A71E-sugemalimab fusion) heavy: VIHVTKEVKEVATLSCGHNVSVEELAQTRIYWQKEKKMVLTMMSGDMNIWPEYKNRTIFDITNNLSIVYLELRPSDEGTYECVVLKYEKDAFKREHLAEVTLSVKADGGGGSGGGGSGGGGSGGGGSGEVQLLESGGGLVQPGGSLRLSCAASGFTFSSYAMSWVRQAPGKGLEWVSGISGSGGFTYYADSVKGRFTISRDNSKNTLYLQMNSLRAEDTAVYYCAKPPRGYNYGPFDYWGQGTLVTVSSASTKGPSVFPLAPCSRSTSESTAALGCLVKDYFPEPVTVSWNSGALTSGVHTFPAVLQSSGLYSLSSVVTVPSSSLGTKTYTCNVDHKPSNTKVDKRVESKYGPPCPPCPAPEFLGGPSVFLFPPKPKDTLMISRTPEVTCVVVDVSQEDPEVQFNWYVDGVEVHNAKTKPREEQFNSTYRVVSVLAVLHQDWLNGKEYKCKVSNKGLPSSIEKTISKAKGQPREPQVYTLPPSQEEMTKNQVSLTCLVKGFYPSDIAVAWESNGQPENNYKTTPPVLDSDGSFFLYSRLTVDKSRWQEGNVFSCSVMHEALHAHYTQKSLSLSLGK light: SYVLTQPPSVSVAPGQTARITCGGNNIGSKSVHWYQQKPGQAPVLVVYDDSDRPSGIPERFSGSNSGNTATLTISRVEAGDEADYYCQVWDSSSDHVVFGGGTKLTVLGQPKAAPSVTLFPPSSEELQANKATLVCLISDFYPGAVTVAWKADSSPVKAGVETTTPSKQSNNKYAASSYLSLTPEQWKSHRSYSCQVTHEGSTVEKTVAPTECS	no binding	no binding
